According to US20180037644A1 (Pfizer, published 2018):
Changes are numbered by the printed parent chain. Like-named read-outs stand apart in the source and are kept apart here. One block for each binder: values may come before it.

Assays:
human IL-33 (mm2) [1] = biological target: T1, human IL-33 (mm2) (human, UniProt O95760 112-270); assay: cell-based or functional assay
T1 chain: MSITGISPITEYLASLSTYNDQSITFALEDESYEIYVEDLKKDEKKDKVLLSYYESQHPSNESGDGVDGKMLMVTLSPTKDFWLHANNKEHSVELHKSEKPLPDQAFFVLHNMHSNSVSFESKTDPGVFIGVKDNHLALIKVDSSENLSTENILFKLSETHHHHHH

[2] = biological target: T2, cynomolgus monkey IL-33 (cys mut) (cynomolgus monkey); assay: cell-based or functional assay
T2 chain: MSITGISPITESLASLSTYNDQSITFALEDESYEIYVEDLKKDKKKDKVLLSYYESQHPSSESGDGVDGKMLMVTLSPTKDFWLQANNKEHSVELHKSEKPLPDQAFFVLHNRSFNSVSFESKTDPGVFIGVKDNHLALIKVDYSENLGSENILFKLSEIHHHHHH

human IL-33 (mm2) [3] = biological target: T1, human IL-33 (mm2); assay: cell-based or functional assay
human IL-33 WT (R&D) [4] = biological target: T3, human IL-33 WT (R&D) (human, UniProt O95760 112-270); assay: cell-based or functional assay
T3 sequence: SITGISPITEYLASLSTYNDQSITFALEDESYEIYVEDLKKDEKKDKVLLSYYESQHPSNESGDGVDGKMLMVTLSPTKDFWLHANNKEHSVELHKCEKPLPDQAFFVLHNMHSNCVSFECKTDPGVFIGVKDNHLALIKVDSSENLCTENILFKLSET

human IL-33 (mm2) [5] = biological target: T1, human IL-33 (mm2); assay: cell-based or functional assay
human IL-33 (mm2) [6] = biological target: T1, human IL-33 (mm2); assay: cell-based or functional assay
[7] = biological target: T2, cynomolgus monkey IL-33 (cys mut); assay: cell-based or functional assay
human IL-33 WT (R&D) [8] = biological target: T3, human IL-33 WT (R&D); assay: cell-based or functional assay; remark: listed apart in the source
human IL-33 (mm2) [9] = biological target: T1, human IL-33 (mm2); assay: cell-based or functional assay
[10] = biological target: T2, cynomolgus monkey IL-33 (cys mut); assay: cell-based or functional assay
human IL-33 WT (R&D) [11] = biological target: T3, human IL-33 WT (R&D); assay: cell-based or functional assay; remark: listed apart in the source
human IL-33 (mm2) [12] = biological target: T1, human IL-33 (mm2); assay: cell-based or functional assay
[13] = biological target: T2, cynomolgus monkey IL-33 (cys mut); assay: cell-based or functional assay
human IL-33 (mm2) [14] = biological target: T1, human IL-33 (mm2); assay: cell-based or functional assay
human IL-33 WT (R&D) [15] = biological target: T3, human IL-33 WT (R&D); assay: cell-based or functional assay; remark: listed apart in the source
human IL-33 (mm2) [16] = biological target: T1, human IL-33 (mm2); assay: cell-based or functional assay
[17] = biological target: T2, cynomolgus monkey IL-33 (cys mut); assay: cell-based or functional assay
human IL-33 (mm2) [18] = biological target: T1, human IL-33 (mm2); assay: cell-based or functional assay
[19] = biological target: T2, cynomolgus monkey IL-33 (cys mut); assay: cell-based or functional assay
human IL-33 (mm2) [20] = biological target: T1, human IL-33 (mm2); assay: SPR, IgG captured by anti-human Fc, IL-33 in solution
Description: (§1) Binding to human and cynomolgus monkey IL-33 was measured by surface plasmon resonance using a BIAcore T200 instrument. An anti-human Fc antibody was immobilized on a CM5 chip, and anti-IL-33 antibodies were captured.

[21] = biological target: T2, cynomolgus monkey IL-33 (cys mut); assay: as above
Description: as §1

human IL-33 (mm2) [22] = biological target: T1, human IL-33 (mm2); assay: cell-based or functional assay
[23] = biological target: T4, wild-type cynomolgus monkey IL-33 (cynomolgus monkey); assay: cell-based or functional assay
T4 chain: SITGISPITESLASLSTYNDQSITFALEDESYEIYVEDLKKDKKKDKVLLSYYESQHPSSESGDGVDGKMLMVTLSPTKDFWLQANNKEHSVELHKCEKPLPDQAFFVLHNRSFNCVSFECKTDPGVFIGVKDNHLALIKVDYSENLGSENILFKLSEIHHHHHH

human IL-33 (mm2) [24] = biological target: T1, human IL-33 (mm2); assay: cell-based or functional assay
[25] = biological target: T2, cynomolgus monkey IL-33 (cys mut); assay: cell-based or functional assay
human IL-33 WT (R&D) [26] = biological target: T3, human IL-33 WT (R&D); assay: cell-based or functional assay; remark: listed apart in the source
[27] = biological target: T4, wild-type cynomolgus monkey IL-33; assay: cell-based or functional assay
human IL-33 (mm2) [28] = biological target: T1, human IL-33 (mm2); assay: cell-based or functional assay
[29] = biological target: T2, cynomolgus monkey IL-33 (cys mut); assay: cell-based or functional assay
human IL-33 WT (R&D) [30] = biological target: T3, human IL-33 WT (R&D); assay: cell-based or functional assay; remark: listed apart in the source
human IL-33 (mm2) [31] = biological target: T1, human IL-33 (mm2); assay: cell-based or functional assay
human IL-33 WT (R&D) [32] = biological target: T3, human IL-33 WT (R&D); assay: cell-based or functional assay; remark: listed apart in the source

- IC50, HEK293 ST2 NFkB (human IL-33 (mm2) [1]): 0.114 nM
- IC50, PBMC mm2 (human IL-33 (mm2) [1]): 0.004 nM
- IC50, whole blood mm2 (human IL-33 (mm2) [1]): 0.009 nM
- IC50, HEK293 ST2 NFkB cyno IL-33 [2]: 0.18 nM
- IC50, human whole blood (human IL-33 (mm2) [3]): 0.014 nM
- IC50, human whole blood (human IL-33 WT (R&D) [4]): 0.387 nM
- IC50, HEK293 ST2 NFkB (human IL-33 (mm2) [5]): 0.019 nM
- IC50, HEK293 ST2 NFkB (human IL-33 (mm2) [6]): 0.043 nM
- IC50, HEK293 ST2 NFkB [7]: 0.069 nM
- IC50, HEK293 ST2 NFkB (human IL-33 WT (R&D) [8]): 3.21 nM
- IC50, HEK293 ST2 NFkB (human IL-33 (mm2) [9]): 0.093 nM
- IC50, HEK293 ST2 NFkB [10]: 0.184 nM
- IC50, HEK293 ST2 NFkB (human IL-33 WT (R&D) [11]): 0.322 nM
- IC50, HEK293 ST2 NFkB (human IL-33 (mm2) [12]): 0.057 nM
- IC50, HEK293 ST2 NFkB [13]: 0.077 nM
- EC50 of IL-33 + 0.2 pM 7E8, human PBMC donor 149 (human IL-33 (mm2) [14]): 0.9 pM
- EC50 of IL-33 + 0.2 pM 7E8, human PBMC donor 172 (human IL-33 (mm2) [14]): 15.1 pM
- EC50 of IL-33 + 2 pM 7E8, human PBMC donor 149 (human IL-33 (mm2) [14]): 2.6 pM
- EC50 of IL-33 + 2 pM 7E8, human PBMC donor 172 (human IL-33 (mm2) [14]): 23.2 pM
- EC50 of IL-33 + 20 pM 7E8, HEK293 ST2 NFkB reporter cells (human IL-33 (mm2) [14]): 2.6 pM
- EC50 of IL-33 + 20 pM 7E8, human PBMC donor 149 (human IL-33 (mm2) [14]): 29.1 pM
- EC50 of IL-33 + 20 pM 7E8, human PBMC donor 172 (human IL-33 (mm2) [14]): 154 pM
- EC50 of IL-33 + 200 pM 7E8, HEK293 ST2 NFkB reporter cells (human IL-33 (mm2) [14]): 29.1 pM
- EC50 of IL-33 + 200 pM 7E8, human PBMC donor 149 (human IL-33 (mm2) [14]): 262 pM
- EC50 of IL-33 + 200 pM 7E8, human PBMC donor 172 (human IL-33 (mm2) [14]): 400 pM
- EC50 of IL-33 + 2 nM 7E8, HEK293 ST2 NFkB reporter cells (human IL-33 (mm2) [14]): 0.262 nM
- EC50 of IL-33 + 2 nM 7E8, human PBMC donor 149 (human IL-33 (mm2) [14]): 2.83 nM
- EC50 of IL-33 + 2 nM 7E8, human PBMC donor 172 (human IL-33 (mm2) [14]): 1.22 nM
- EC50 of IL-33 + 20 nM 7E8, HEK293 ST2 NFkB reporter cells (human IL-33 (mm2) [14]): 2.83 nM
- EC50 of IL-33 + 2 pM 7E8, HEK293 ST2 NFkB reporter cells (human IL-33 WT (R&D) [15]): 8 pM
- EC50 of IL-33 + 20 pM 7E8, HEK293 ST2 NFkB reporter cells (human IL-33 WT (R&D) [15]): 10.2 pM
- EC50 of IL-33 + 200 pM 7E8, HEK293 ST2 NFkB reporter cells (human IL-33 WT (R&D) [15]): 25.8 pM
- EC50 of IL-33 + 2 nM 7E8, HEK293 ST2 NFkB reporter cells (human IL-33 WT (R&D) [15]): 0.103 nM
- EC50 of IL-33 + 20 nM 7E8, HEK293 ST2 NFkB reporter cells (human IL-33 WT (R&D) [15]): 0.653 nM
- IC50, HEK293 ST2 NFkB (human IL-33 (mm2) [16]): 0.059 nM
- IC50, HEK293 ST2 NFkB [17]: 0.131 nM
- IC50, HEK293 ST2 NFkB (human IL-33 (mm2) [18]): 0.04 nM
- IC50, HEK293 ST2 NFkB [19]: 0.054 nM
- Kd (human IL-33 (mm2) [20]): 0.171 nM
- Kd [21]: 0.142 nM
- IC50, IFN-γ production in human PBMC (human IL-33 (mm2) [22]): 0.0014 nM
B1: 7E8 CDR graft (antibody, human IgG1, kappa)
heavy: HSEVQLVESGGGLVQPGGSLRLSCAASGFTFSSYWMYWVRQAPGKGLEWVASITPNGGNTYYPDSVKGRFTISRDNAKNSLYLQMNSLRAEDTAVYYCARGHYYYTSYSLGYWGQGTLVTVSSASTKGPSVFPLAPSSKSTSGGTAALGCLVKDYFPEPVTVSWNSGALTSGVHTFPAVLQSSGLYSLSSVVTVPSSSLGTQTYICNVNHKPSNTKVDKKVEPKSCDKTHTCPPCPAPEAAGAPSVFLFPPKPKDTLMISRTPEVTCVVVDVSHEDPEVKFNWYVDGVEVHNAKTKPREEQYNSTYRVVSVLTVLHQDWLNGKEYKCKVSNKALPAPIEKTISKAKGQPREPQVYTLPPSREEMTKNQVSLTCLVKGFYPSDIAVEWESNGQPENNYKTTPPVLDSDGSFFLYSKLTVDKSRWQQGNVFSCSVMHEALHNHYTQKSLSLSPGK
light: DIQMTQSPSSLSASVGDRVTITCKASQNINKHLDWYQQKPGKAPKLLIYFTNNLQTGVPSRFSGSGSGTDFTLTISSLQPEDFATYYCFQYNNGWTFGGGTKVEIKRTVAAPSVFIFPPSDEQLKSGTASVVCLLNNFYPREAKVQWKVDNALQSGNSQESVTEQDSKDSTYSLSSTLTLSKADYEKHKVYACEVTHQGLSSPVTKSFNRGEC
notes: also called CDR-grafted 7E8; 7E8 CDR-grafted

- IC50, human whole blood (human IL-33 (mm2) [3]): 0.021 nM
- IC50, human whole blood (human IL-33 WT (R&D) [4]): 0.868 nM
- Cynomolgus monkey:human IC50 ratio: wild-type IL-33 [23]: 9.2
- IC50, HEK293 ST2 NFkB [23]: 0.562 nM
- IC50, HEK293 ST2 NFkB (human IL-33 (mm2) [24]): 0.009 nM
- Cynomolgus monkey:human IC50 ratio: cysteine mutant IL-33 [25]: 1.4
- IC50, HEK293 ST2 NFkB [25]: 0.013 nM
- IC50, HEK293 ST2 NFkB (human IL-33 WT (R&D) [26]): 0.061 nM
- IC50, HEK293 ST2 NFkB (human IL-33 (mm2) [9]): 0.162 nM
- IC50, HEK293 ST2 NFkB [10]: 0.198 nM
- IC50, HEK293 ST2 NFkB (human IL-33 WT (R&D) [11]): 0.983 nM
- Cynomolgus monkey:human IC50 ratio: wild-type IL-33 [27]: 4.2
- IC50, HEK293 ST2 NFkB (DTT-pretreated IL-33) [27]: 1.39 nM
- IC50, HEK293 ST2 NFkB (human IL-33 (mm2) [28]): 0.019 nM
- Cynomolgus monkey:human IC50 ratio: cysteine mutant IL-33 [29]: 1.8
- IC50, HEK293 ST2 NFkB [29]: 0.034 nM
- IC50, HEK293 ST2 NFkB (DTT-pretreated IL-33) (human IL-33 WT (R&D) [30]): 0.331 nM
- IC50, HEK293 ST2 NFkB (human IL-33 (mm2) [31]): 0.079 nM
- IC50, HEK293 ST2 NFkB (human IL-33 WT (R&D) [32]): 2.66 nM
- IC50, IFN-γ production in human PBMC (human IL-33 (mm2) [22]): 0.0014 nM
B2: IL33-158LS (antibody, human IgG1, kappa)
heavy: EVQLVESGGGLVQPGGSLRLSCAASGFTFSSYWMYWVRQAPGKGLEWVAAITPNAGEDYYPESVKGRFTISRDNAKNSLYLQMNSLRAEDTAVYYCARGHYYYTSYSLGYWGQGTLVTVSSASTKGPSVFPLAPSSKSTSGGTAALGCLVKDYFPEPVTVSWNSGALTSGVHTFPAVLQSSGLYSLSSVVTVPSSSLGTQTYICNVNHKPSNTKVDKKVEPKSCDKTHTCPPCPAPEAAGAPSVFLFPPKPKDTLMISRTPEVTCVVVDVSHEDPEVKFNWYVDGVEVHNAKTKPREEQYNSTYRVVSVLTVLHQDWLNGKEYKCKVSNKALPAPIEKTISKAKGQPREPQVYTLPPSREEMTKNQVSLTCLVKGFYPSDIAVEWESNGQPENNYKTTPPVLDSDGSFFLYSKLTVDKSRWQQGNVFSCSVLHEALHSHYTQKSLSLSPG
light: B1 light with N93Q
